Data as given in US20110243928A1 (published 2011).
Values belong to the binder of their own block, whether it stands above or below them.

What was measured:
[1] = biological target: T1, E. coli-expressed recombinant cynomolgus IL-13 (cynomolgus, UniProt Q5I6E4 21-132 (Macaca thibetana entry)); assay: BIAcore analysis 1, antibody captured, IL-13 in solution
T1 construct: also called cyno IL13 (CA); cIL-13
T1 chain: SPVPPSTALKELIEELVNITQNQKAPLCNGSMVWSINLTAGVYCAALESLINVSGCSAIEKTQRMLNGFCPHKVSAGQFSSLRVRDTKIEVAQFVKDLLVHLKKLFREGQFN
Procedure: (§1) Completed for both human and cynomolgus IL-13 (E. coli-expressed protein). The quoted KD values are the average from 5 different IL-13 concentration curves (done in triplicate). Note that mass transfer issues were apparent in this analysis and that a modified experimental protocol (to correct for this issue) has been completed in analysis 4 (where no mass transfer issues were present).
(§2) The kinetics analysis was performed on a Biacore 3000 machine, using an antibody capture method. Briefly, for the chimeric 6A1 and humanised antibody constructs Protein A capture was used, whilst for the parental murine 6A1 antibody, capture was by a anti-mouse Fc antibody supplied by Biacore. Briefly, the method is as follows, the capture ligand was immobilised to a CM5 Biosensor chip by primary amine coupling in accordance with Biacore standard protocols and using the reagents supplied in Biacores' primary amine coupling kit. The method involves activation CM5 sensor surface by passing a solution of 50 mM N-hydroxy-succinimide (NHS) and 200 mM N-ethyl-N′-dimethylaminopropyl […] (EDC) over the surface. Then, the capture ligand (dissolved in acetate buffer pH5 or pH4.5) was coupled to the activated sensor surface after which any still activated esters were blocked by an injection of 1M ethanolamine hydrochloride, pH8.5.
(§3) The candidate antibody was then passed over the Protein A or anti-mouse Fc antibody surface, depending on whether it was human or mouse in origin and captured. Once a stable binding signal was seen IL13 was passed over the captured antibody surface at various defined concentrations. The subsequent binding curves were analysed with Biacore analysis software BIAeval v4.1 to determine kinetics. The experiments were carried out using Biacore HBS-EP buffer.

[2] = biological target: T2, E. coli-expressed recombinant human IL-13 (human, UniProt P35225 35-146); assay: as above
T2 construct: Untagged E. coli-expressed human IL-13; also called hIL-13; human IL13 (CA)
T2 sequence (P35225 other isoform, or with tags, fused parts or gaps): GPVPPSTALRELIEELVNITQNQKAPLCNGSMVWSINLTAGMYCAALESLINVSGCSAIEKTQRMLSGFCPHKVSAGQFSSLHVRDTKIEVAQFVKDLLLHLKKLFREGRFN
Procedure: as §1, §2, §3

[3] = biological target: T3, E. coli-expressed recombinant det-1 tagged human IL-13 (human, UniProt P35225 35-146); assay: competition ELISA: inhibition of det-1 tagged human IL-13 binding to human IL-13Rα1-Fc
T3 construct: also called Det-1 tagged human IL-13 (made in-house); not shown: det-1 tag
T3 sequence (P35225 other isoform, or with tags, fused parts or gaps): as above

[4] = biological target: T1, E. coli-expressed recombinant …; assay: BIAcore analysis 4, antibody captured on Protein A, IL-13 in solution
Procedure: (§4) Completed for both human and cynomolgus IL-13 (E. coli-expressed protein). The quoted KD values are the average from 5 different IL-13 concentration curves (done in triplicate).
as §2, §3

[5] = biological target: T2, E. coli-expressed recombinant human …; assay: as above
Procedure: as §4, §2, §3

[6] = biological target: T4, 16mer biotinylated human IL-13 peptide number 24 (human, N-terminal biotin; C-terminal amide); assay: BIAcore analysis 3, antibody over biotinylated peptide on SA chip
T4 construct: format Biotin-SGSG-PEPTIDE-amide; also called Peptide 24
T4 peptide: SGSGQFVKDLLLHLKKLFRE
Procedure: Completed for the 16mer biotinylated human IL-13 peptide number 24 (identified as the linear binding epitope for parental mAb 6A1, see section 6.7). Note that the absolute KD values obtained for binding to peptide ligands are often quite different to those seen for binding to whole protein targets.
The kinetics analysis was performed on a Biacore 3000 machine using direct binding of antibody to immobilised IL-13 peptide. Briefly, IL-13 biotinylated peptide was captured using a Biacore SA (strepavidin) Biosensor chip. The antibodies were then passed over the sensor surface at various concentrations. The subsequent binding curves were analysed with Biacore analysis software BIAeval 4.1 to determine kinetics. The experiment was carried out using Biacore HBS-EP buffer

[7] = biological target: T1, E. coli-expressed recombinant …; assay: cell-based or functional assay
[8] = biological target: E. coli-expressed recombinant Q130 human IL-13 (human, UniProt P35225 35-146, limits assumed); assay: cell-based or functional assay
Chain of E. coli-expressed recombinant Q130 human IL-13 (P35225 35-146 limits assumed): as the sequence (P35225 other isoform, or with tags, fused parts or gaps) above, with R110Q counted along it

[9] = biological target: mammalian-expressed (CHO cell) human IL-13 (human, UniProt P35225 35-146, limits assumed); assay: cell-based or functional assay
Chain of mammalian-expressed (CHO cell) human IL-13 (P35225 other isoform, or with tags, fused parts or gaps limits assumed): as the sequence (P35225 other isoform, or with tags, fused parts or gaps) above

[10] = biological target: T2, E. coli-expressed recombinant human …; assay: cell-based or functional assay
[11] = biological target: T2, E. coli-expressed recombinant human …; assay: human IL-13 binding sandwich ELISA
[12] = biological target: T3, E. coli-expressed recombinant det-1 …; assay: competition ELISA: inhibition of det-1 tagged human IL-13 binding to human IL-13Rα2-Fc
[13] = biological target: T1, E. coli-expressed recombinant …; assay: cynomolgus IL-13 binding sandwich ELISA
[14] = biological target: T5, E. coli-expressed recombinant human IL-4 (human, UniProt P05112 25-153); assay: binding ELISA
T5 sequence (looked up): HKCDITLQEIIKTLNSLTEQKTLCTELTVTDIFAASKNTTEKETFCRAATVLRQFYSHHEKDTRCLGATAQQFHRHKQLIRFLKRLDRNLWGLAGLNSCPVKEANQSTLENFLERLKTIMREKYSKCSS

[15] = biological target: T6, E. coli-expressed recombinant human GM-CSF (human, UniProt P04141 18-144); assay: binding ELISA
T6 sequence (P04141 18-144 limits assumed): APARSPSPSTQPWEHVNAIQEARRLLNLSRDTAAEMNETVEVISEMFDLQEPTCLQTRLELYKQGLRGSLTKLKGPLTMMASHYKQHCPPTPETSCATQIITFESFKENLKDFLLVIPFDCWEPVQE

[16] = biological target: T7, native (PBMC derived) human IL-13 (human, UniProt P35225 35-146, limits assumed); assay: ELISA on Th2 cell supernatant read against a standard curve
T7 construct: IL-13 in supernatant of stimulated human CD4+ Th2 cells; also called native human IL-13; Native IL-13
T7 sequence (P35225 other isoform, or with tags, fused parts or gaps limits assumed): as the sequence (P35225 other isoform, or with tags, fused parts or gaps) above

[17] = biological target: T2, E. coli-expressed recombinant human …; assay: human IL-13 binding ELISA, CHO supernatant
[18] = biological target: T2, E. coli-expressed recombinant human …; assay: sandwich ELISA
[19] = biological target: T5, E. coli-expressed recombinant human IL-4; assay: human IL-4 binding sandwich ELISA
[20] = biological target: T6, E. coli-expressed recombinant human …; assay: sandwich ELISA

B1: L2+A1 (antibody, human IgG1, kappa, V domains shown)
VH: QVQLVQSGAEVKKPGSSVKVSCKASGFYIKDTYMHWVRQAPGQGLEWMGTIDPANGNTKYVPKFQGRVTITADESTSTAYMELSSLRSEDTAVYYCARSIYDDYHYDDYYAMDYWGQGTLVTVSS
VL: DIVMTQSPLSLPVTPGEPASISCRSSQNIVHINGNTYLEWYLQKPGQSPRLLIYKISDRFSGVPDRFSGSGSGTDFTLKISRVEADDVGVYYCFQGSHVPWTFGQGTKLEIKR
notes: Humanised 6A1, VH construct A1 and VL construct L2; also called A1L2
Kd [1]: 0.097 nM
koff [1]: 5.58e-05 s⁻¹
kon [1]: 577000 M⁻¹ s⁻¹
Kd [2]: 0.31 nM
koff [2]: 0.000156 s⁻¹
kon [2]: 507000 M⁻¹ s⁻¹
IC50 [3]: 0.056 µg/mL
Kd [4]: 0.055 nM
koff [4]: 4.25e-05 s⁻¹
kon [4]: 772000 M⁻¹ s⁻¹
Kd [5]: 0.153 nM
koff [5]: 0.000139 s⁻¹
kon [5]: 907000 M⁻¹ s⁻¹
Kd [6]: 9.35 nM
koff [6]: 0.00167 s⁻¹
kon [6]: 179000 M⁻¹ s⁻¹
Mean ND50 for 2 assays [7]: 0.12 µg/mL
Mean ND50 for 2 assays [8]: 0.705 µg/mL
Mean ND50 for 2 assays [9]: 1.2 µg/mL
Mean ND50 for 2 assays [10]: 0.608 µg/mL
EC50 [11]: 0.024 µg/mL
IC50 [12]: 0.117 µg/mL
EC50 [13]: 0.028 µg/mL
binding result [14]: no binding (tested: 30 µg/ml)
binding result [15]: no binding (tested: 30 µg/ml)
Native IL-13 (ng/ml) detected in Th2 supernatant [16]: 22.7 ng/mL

B2: A2L1 (antibody, human IgG1, kappa, V domains shown)
VH: QVQLVQSGAEVKKPGSSVKVSCKASGFYIKDTYMHWVIQAPGQGLEWMGTIDPANGNTKYVPKFQGRVTITADESTSTAYMELSSLRSEDTAVYYCARSIYDDYHYDDYYAMDYWGQGTLVTVSS
VL: DIVMTQSPLSLPVTPGEPASISCRSSQNIVHINGNTYLEWYLQKPGQSPRLLIYKISDRFSGVPDRFSGSGSGTDFTLKISRVEADDVGIYYCFQGSHVPWTFGQGTKLEIKR
notes: Humanised 6A1 combination, tested as CHO cell supernatant
binding result [17]: binds

B8: chimaeric 6A1 (antibody, human IgG1, V domains shown)
VH: EIQLQQSVAELVRPGASVRLSCTASGFYIKDTYMHWVIQRPEQGLEWIGTIDPANGNTKYVPKFQGKATITADTSSNTAYLRLSSLTSEDTAIYYCARSIYDDYHYDDYYAMDYWGQGTSVTVSS
VL: DVLMTQTPLSLPVSLGDQASISCRSSQNIVHINGNTYLEWYLQKPGQSPKLLIYKISDRFSGVPDRFSGSGSGTDFTLKISRVEAEDLGVYYCFQGSHVPWTFGGGTKLEIK
notes: Parent murine 6A1 V regions on human IgG1/k wild type C regions, expressed in CHO cells; also called 6A1c; 6A1 chimaeric antibody
binding result [19]: no binding
Kd [1]: 0.055 nM
koff [1]: 3.27e-05 s⁻¹
kon [1]: 592000 M⁻¹ s⁻¹
Kd [2]: 0.043 nM
koff [2]: 2e-05 s⁻¹
kon [2]: 464000 M⁻¹ s⁻¹
IC50 [3]: 0.034 µg/mL
Kd [4]: 0.03 nM
koff [4]: 2.65e-05 s⁻¹
kon [4]: 885000 M⁻¹ s⁻¹
Kd [5]: 0.038 nM
koff [5]: 4e-05 s⁻¹
kon [5]: 1.05e+06 M⁻¹ s⁻¹
Kd [6]: 3.58 nM
koff [6]: 0.000919 s⁻¹
kon [6]: 257000 M⁻¹ s⁻¹
binding result [20]: no binding
Mean ND50 for 2 assays [7]: 0.059 µg/mL
Mean ND50 for 2 assays [8]: 0.128 µg/mL
Mean ND50 for 2 assays [9]: 0.285 µg/mL
Mean ND50 for 2 assays [10]: 0.119 µg/mL
EC50 [11]: 0.015 µg/mL
IC50 [12]: 0.04 µg/mL
EC50 [13]: 0.018 µg/mL
Native IL-13 (ng/ml) detected in Th2 supernatant [16]: 19.6 ng/mL

The next lines start with the values.

binding result [17]: binds
B3: A3L1 (antibody, human IgG1, kappa, V domains shown)
VH: QVQLVQSGAEVKKPGSSVKVSCKASGFYIKDTYMHWVIQAPGQGLEWMGTIDPANGNTKYVPKFQGRVTITADTSTSTAYMELSSLRSEDTAVYYCARSIYDDYHYDDYYAMDYWGQGTLVTVSS
VL: DIVMTQSPLSLPVTPGEPASISCRSSQNIVHINGNTYLEWYLQKPGQSPRLLIYKISDRFSGVPDRFSGSGSGTDFTLKISRVEADDVGIYYCFQGSHVPWTFGQGTKLEIKR
notes: as for B2

binding result [17]: binds
B4: A3L2 (antibody, human IgG1, kappa, V domains shown)
VH: QVQLVQSGAEVKKPGSSVKVSCKASGFYIKDTYMHWVIQAPGQGLEWMGTIDPANGNTKYVPKFQGRVTITADTSTSTAYMELSSLRSEDTAVYYCARSIYDDYHYDDYYAMDYWGQGTLVTVSS
VL: DIVMTQSPLSLPVTPGEPASISCRSSQNIVHINGNTYLEWYLQKPGQSPRLLIYKISDRFSGVPDRFSGSGSGTDFTLKISRVEADDVGVYYCFQGSHVPWTFGQGTKLEIKR
notes: as for B2

binding result [18]: binds
B5: A4L2 (antibody, human IgG1, kappa, V domains shown)
VH: QVQLVQSGAEVKKPGSSVRVSCKASGFYIKDTYMHWVIQAPGQGLEWMGTIDPANGNTKYVPKFQGRVTITADTSTSTAYMRLSSLRSEDTAVYYCARSIYDDYHYDDYYAMDYWGQGTLVTVSS
VL: DIVMTQSPLSLPVTPGEPASISCRSSQNIVHINGNTYLEWYLQKPGQSPRLLIYKISDRFSGVPDRFSGSGSGTDFTLKISRVEADDVGVYYCFQGSHVPWTFGQGTKLEIKR
notes: as for B2

binding result [18]: binds
B6: A4L1 (antibody, human IgG1, kappa, V domains shown)
VH: QVQLVQSGAEVKKPGSSVRVSCKASGFYIKDTYMHWVIQAPGQGLEWMGTIDPANGNTKYVPKFQGRVTITADTSTSTAYMRLSSLRSEDTAVYYCARSIYDDYHYDDYYAMDYWGQGTLVTVSS
VL: DIVMTQSPLSLPVTPGEPASISCRSSQNIVHINGNTYLEWYLQKPGQSPRLLIYKISDRFSGVPDRFSGSGSGTDFTLKISRVEADDVGIYYCFQGSHVPWTFGQGTKLEIKR
notes: as for B2

binding result [17]: binds
B7: A2L2 (antibody, human IgG1, kappa, V domains shown)
VH: QVQLVQSGAEVKKPGSSVKVSCKASGFYIKDTYMHWVIQAPGQGLEWMGTIDPANGNTKYVPKFQGRVTITADESTSTAYMELSSLRSEDTAVYYCARSIYDDYHYDDYYAMDYWGQGTLVTVSS
VL: DIVMTQSPLSLPVTPGEPASISCRSSQNIVHINGNTYLEWYLQKPGQSPRLLIYKISDRFSGVPDRFSGSGSGTDFTLKISRVEADDVGVYYCFQGSHVPWTFGQGTKLEIKR
notes: as for B2
